The text below walks through data of US6417328B1, “Trail receptors, nucleic acids encoding the same, and methods of use thereof” (Thomas Jefferson Univeristy, priority 1997, dated 2002).

Holding throughout (assay type): cell-based, human
Experiment [1] has as its system DR5-induced apoptosis in MCF7 cells. The experiment in a line: Inhibition of DR5-induced apoptosis in transfected MCF7 cells. The text has this:
(§1) For apoptosis assays the mammalian double expression vector pRSC (Akporiaye E. T. et al. (1997) BioTech. 22, 68) was used, which allows for expression of lacZ under the RSV promoter and the test cDNA (DR4, DR4A, DR5, DR5A, TRAIL-R3) under the CMV promoter. CrmA, FLAME-1, caspase-8-DN (C345A) or caspase-10-DN (C358A) (Alnemnri E. S. et al. (1997) J. Biol. Chem. 272, 18542-18545) were expressed using pcDNA3 (Invitrogen).
(§2) FIG. 3 illustrates that expression of DR5 but not TRAIL-R3 induces apoptosis in human cells. MCF7 (FIG. 3A) and 293 (FIG. 3B) cells were transfected with the indicated pRSC-lacZ constructs. Thirty hours after transfection cells were stained with Pgal and examined for morphological signs of apoptosis. The graphs show the percentage of round blue apoptotic cells (mean +SD) as a function of total blue cells under each condition (≧23).
(§3) MCF7 cells were transfected with DR4 or DR5 expression constructs in the presence of z-VAD-fmk (20 μM) or co-transfected with a four-fold excess of a CrmA, caspase-8-DN, caspase-10-DN or FLAME-1 construct or an empty vector. The data are represented as in FIGS. 3A and 3B.

In experiment [2] the test system is DR4-induced apoptosis in MCF7 cells. The experiment in a line: Inhibition of DR4-induced apoptosis in transfected MCF7 cells.
Text: as §1, §2, §3

The next experiment deals with apoptosis by TNF-α. In words: Inhibition of apoptosis by TNF-α (FIG. 3F).
In a further experiment the test system is apoptosis by TRAIL. In words: Inhibition of apoptosis by TRAIL (FIG. 3F).
The test system of experiment [3] is MCF7 cells. In words: Apoptosis induction by transient expression in MCF7 cells. The conditions noted are these: pRSC-lacZ constructs, thirty hours after transfection (FIG. 3A).
Text: as §1, §2

The subject of another experiment is 293 cells. In words: Apoptosis induction by transient expression in 293 cells. As to conditions: pRSC-lacZ constructs, thirty hours after transfection (FIG. 3B).
Text: as §1, §2

For experiment [4], the system named is MCF7 cells. The experiment in a line: Blocking of TRAIL-induced apoptosis in MCF7 cells. The conditions noted are these: MCF7 cells transfected 36 h, then soluble TRAIL 250 ng/ml for 8 h (FIG. 3C). The procedure: Cells were stained 8 hours later with propidium iodide and the nuclei were examined by fluorescence microscopy.
MCF7 cells were transfected with TRAIL-R3 or vector alone for 36 h, then treated with soluble TRAIL (250 ng/ml) for 8 h. The data are represented as in FIGS. 3A and 3B, after subtracting the background killing (12-15%) as a result of transfection.

The mark [5] stands for this setting: MCF7 cells co-transfected with four-fold excess of inhibitor construct (FIG. 3D, 3E).

Residues, ends and D or L forms follow the SMILES beside them. *: point of attachment. Cbz = O=C(OCc1ccccc1)*; CH2F = FC*

In the case of `COC(=O)C[C@H](NC(=O)[C@H](C)NC(=O)[C@@H](NC(=O)OCc1ccccc1)C(C)C)C(=O)CF` [z-VAD-fmk, reference compound] (Cbz-Val-Ala-Asp(OMe)-CH2F), the “Inhibition of DR5-induced apoptosis” value in experiment [1] (MCF7 cells transfected with DR5 construct in the presence of inhibitor 20 μM (FIG. 3D)) is “efficiently blocked”. The “Inhibition of DR4-induced apoptosis” value in experiment [2] (MCF7 cells transfected with DR4 construct in the presence of inhibitor 20 μM (FIG. 3D)) was “inhibited”.
For “DR5s: alternatively spliced isoform of DR5, 350 amino acids (SEQ ID NO:6), truncated death domain”, the “Inhibition of apoptosis by TNF-α” value with apoptosis by TNF-α is on record as “not”. Besides, the “Inhibition of apoptosis by TRAIL” value with apoptosis by TRAIL was “substantially inhibits”.

B1: caspase-8-DN: dominant negative inhibitor caspase-8 (C345A), expressed using pcDNA3 (protein, UniProt Q14790 1-479, looked up, variant C345A)
chain: MDFSRNLYDIGEQLDSEDLASLKFLSLDYIPQRKQEPIKDALMLFQRLQEKRMLEESNLSFLKELLFRINRLDLLITYLNTRKEEMERELQTPGRAQISAYRVMLYQISEEVSRSELRSFKFLLQEEISKCKLDDDMNLLDIFIEMEKRVILGEGKLDILKRVCAQINKSLLKIINDYEEFSKERSSSLEGSPDEFSNGEELCGVMTISDSPREQDSESQTLDKVYQMKSKPRGYCLIINNHNFAKAREKVPKLHSIRDRNGTHLDAGALTTTFEELHFEIKPHDDCTVEQIYEILKIYQLMDHSNMDCFICCILSHGDKGIIYGTDGQEAPIYELTSQFTGLKAPSLAGKPKVFFIQACQGDNYQKGIPVETDSEEQPYLEMDLSSPQTRYIPDEADFLLGMATVNNCVSYRNPAEGTWYIQSLCQSLRERCPRGDDILTILTEVNYEVSNKDDKKNMGKQMPQPTFTLRKKLVFPSD
Consider B1, for which the “Inhibition of DR5-induced apoptosis” value in experiment [1] (setting [5]) was “significantly inhibited”. Further, the “Inhibition of DR4-induced apoptosis” value in experiment [2] (setting [5]) is “significantly inhibited”.

B2: DR5: human TRAIL receptor protein of 411 amino acids (SEQ ID NO:2) with cytoplasmic death domain (protein, listed as Homo sapiens)
chain: MEQRGQNAPAASGARKRHGPGPREARGARPGLRVPKTLVLVVAAVLLLVSAESALITQQDLAPQQRVAPQQKRSSPSEGLCPPGHHISEDGRDCISCKYGQDYSTHWNDLLFCLRCTRCDSGEVELSPCTTTRNTVCQCEEGTFREEDSPEMCRKCRTGCPRGMVKVGDCTPWSDIECVHKESGIIIGVTVAAVVLIVAVFVCKSLLWKKVLPYLKGICSGGGGDPERVDRSSQRPGAEDNVLNEIVSILQPTQVPEQEMEVQEPAEPTGVNMLSPGESEHLLEPAEAERSQRRRLLVPANEGDPTETLRQCFDDFADLVPFDSWEPLMRKLGLMDNEIKVAKAEAAGHRDTLYTMLIKWVNKTGRDASVHTLLDALETLGERLAKQKIEDHLLSSGKFMYLEGNADSAMS
As for B2, the “Induction of apoptosis by transient expression” value in the experiment on MCF7 cells [3] and with 293 cells was “triggers apoptosis” in each case.

B3: TRAIL-R3: human TRAIL receptor protein of 299 amino acids (SEQ ID NO:4) without cytoplasmic domain (protein, listed as Homo sapiens)
chain: MQGVKERFLPLGNSGDRAPRPPDGRGRVRPRTQDGVGNHTMARIPKTLKFVVVIVAVLLPVLAYSATTARQEEVPQQTVAPQQQRHSFKGEECPAGSHRSEHTGACNPCTEGVDYTNASNNEPSCFPCTVCKSDQKHKSSCTMTRDTVCQCKEGTFRNENSPEMCRKCSRCPSGEVQVSNCTSWDDIQCVEEFGANATVETPAAEETMNTSPGTPAPAAEETMNTSPGTPAPAAEETMTTSPGTPAPAAEETMTTSPGTPAPAAEETMTTSPGTPASSHYLSCTIVGIIVLIVLLIVFV
As to B3, the “Induction of apoptosis by transient expression” value with MCF7 cells [3] and with 293 cells was “incapable of inducing apoptosis” each time. In addition, the “Blocking of TRAIL-induced apoptosis by transient (ectopic) expression” value with MCF7 cells [4] was “significantly blocked”.
